One protein from publication PMC9001643 (Scientific Reports, 2022) can be followed below.

This data set deals with the molecule itself. In words: crystal structure; His6-dmJMJD7.Mn(II).ligand complexes (2OG, succinate, N-oxalylglycine, 2,4-PDCA, N-oxalyl-D-alanine, N-oxalyl-D-phenylalanine); sitting drops at 25 °C, 0.1 M Bis-Tris pH 5.4, 0.3 M magnesium chloride, 18-23% PEG 3350; two molecules per asymmetric unit, space group P2_(1).

B1: Drosophila melanogaster Jumonji domain-containing 7 (His6-dmJMJD7) (enzyme, UniProt Q9VU77 1-316, looked up)
chain: MSEVERALDVLLQEAEELCIGSSVVELDRIPTALEFCREFYSKNQPVVIRKALNWPAIGKWTPKYLIEALGDRSVDVAITPNGYADGLATQNGQEYFVLPLETKMKLSEVVRRLDDPTGAVHYIQKQNSNLSVDLPELAADLRVSDLDFAQQSFNKPPDAVNFWLGDERAVTSMHKDPYENVYCVISGHKDFVLIPPHQLSCVPRGIYPTGVYKTSDSGQFYIEPLRDEEGSDQFTEWVSVDPLSPDLAKYPEYARAKPLKVRVHAGDILYLPNYWFHHVSQSHKCIAVNFWYDLDYDSRYCYYRMLEQMTSARSG
notes: JMJD7 of Drosophila melanogaster, full length, aa 1-316, UniProt Q9VU77, cloned into pET28a; Homodimer in the crystals; the two monomers are covalently linked by a disulfide bond Cys37-Cys37'; Crystallised with Mn(II) in place of Fe(II) and with 2OG, succinate or a 2OG analogue; also called JMJD7_DROME; not shown: His6, N-terminal, kept
On to B1, for which the “stoichiometry N” value is 2.

In general, stoichiometry N refers to the number of molecules, sites or subunits per partner or assembly.
